Tests used:
Test in all cases: IEDB peptide-MHC binding, purified MHC/direct/fluorescence; filed as Kd, often an IC50 or EC50 that approximates it; ≥ and ≤ were set here for values at or beyond the usual limits of such assays
[1] = target: HLA-B*39:01; details: source organism: Yellow fever virus
[2] = target: HLA-A*31:01
[3] = target: HLA-A*03:01; details: source organism: Yellow fever virus
[4] = target: HLA-B*51:01
[5] = target: HLA-B*40:01; details: source organism: Yellow fever virus
[6] = target: HLA-B*15:01; details: source organism: dengue virus type 4
[7] = target: HLA-B*07:02; details: source organism: Yellow fever virus
[8] = target: HLA-A*01:01; details: source organism: dengue virus type 2
[9] = source organism: Yellow fever virus

## CRTAFKPVL
[1]
  Kd: 2060 nM

## RMGERQLQK
[2]; [9]
  Kd: 187 nM
[3]
  Kd: 340 nM

## IQYVIRAQL
[1]
  Kd: 682 nM

## FHKRDMRLL
[1]
  Kd: ≥ 20000 nM

## LTLKGTSYK
[2]; [9]
  Kd: 518 nM
[3]
  Kd: 104 nM

## VRGGMVAPL
[1]
  Kd: 5370 nM

## RADEINAIL
[1]
  Kd: 156 nM

## FTMRLLSPV
[4]; source organism: dengue virus type 1
  Kd: ≥ 20000 nM

## GEAMDTISV
[5]
  Kd: ≤ 1 nM
[1]
  Kd: ≥ 20000 nM

## RTWAYHGSY
[2]; source organism: dengue virus type 4
  Kd: 37 nM
[6]
  Kd: 12 nM

## ERWFVRNPF
[1]
  Kd: ≥ 20000 nM

## SSARYDVAL
[1]
  Kd: 377 nM

## TKDTNDNNL
[1]
  Kd: 136 nM

## MPRSIGGPV
[4]; [9]
  Kd: 858 nM
[7]
  Kd: 5 nM

## KTWAYHGSY
[2]; source organism: dengue virus type 2
  Kd: ≥ 20000 nM
[8]
  Kd: ≥ 20000 nM

## PHAATIRVL
[1]
  Kd: 960 nM

## MVIFFMSPK
[2]; [9]
  Kd: 1400 nM
[3]
  Kd: 610 nM

## FHERGYVKL
[1]
  Kd: 35 nM

Reference: the Immune Epitope Database (IEDB)
